Test results taken from patent US20030040043A1 (published 2003).
Changes are numbered by the printed parent chain. In names and notes the source's numbering stands.

B1: GAL4ad-FtsZ^D373G fusion (pGAD424) (other)
chain: MFEPMELTNDAVIKVIGVGGGGGNAVEHMVRERIEGVEFFAVNTDAQALRKTAVGQTIQIGSGITKGLGAGANPEVGRNAADEDRDALRAALEGADMVFIAAGMGGGTGTGAAPVVAEVAKDLGILTVAVVTKPFNFEGKKRMAFAEQGITELSKHVDSLITIPNDKLLKVLGRGISLLDAFGAANDVLKGAVQGIAELITRPGLMNVDFADVRTVMSEMGYAMMGSGVASGEDRAEEAAEMAISSPLLEDIDLSGARGVLVNITAGFDLRLDEFETVGNTIRAFASDNATVVIGTSLDPDMNDELRVTVVATGIGMDKRPEITLVTNKQVQQPVMDRYQQHGMAPLTQEQKPVAKVVNDNAPQTAKEPDYLGIPAFLRKQAD
notes: also called pGAD424-FtsZ^D373G; SHp201
B2: GAL4ad-FtsZ^D373G,P375L fusion (pGAD424) (other)
chain: B1 chain with P375L
notes: also called pGAD424-FtsZ^D373G,P375L; SHp203

Molecular target: T1, GAL4bd-FtsA fusion (E. coli, UniProt P04386 1-147; P0ABH0 1-420)
T1 construct: also called pAS2-1-FtsA; SHp100
Test: yeast two-hybrid, GAL4 system, plates lacking histidine and AT

Row | Binder | binding result
1 | B1 | no binding
2 | B2 | no binding
